In patent publication US20130064833A1:

Molecular target: hepatocyte growth factor receptor (HGFR) (UniProt P08581)
Assay: cell-based or functional assay

Sequence of UniProt P08581 (P08581 25-1390 limits assumed): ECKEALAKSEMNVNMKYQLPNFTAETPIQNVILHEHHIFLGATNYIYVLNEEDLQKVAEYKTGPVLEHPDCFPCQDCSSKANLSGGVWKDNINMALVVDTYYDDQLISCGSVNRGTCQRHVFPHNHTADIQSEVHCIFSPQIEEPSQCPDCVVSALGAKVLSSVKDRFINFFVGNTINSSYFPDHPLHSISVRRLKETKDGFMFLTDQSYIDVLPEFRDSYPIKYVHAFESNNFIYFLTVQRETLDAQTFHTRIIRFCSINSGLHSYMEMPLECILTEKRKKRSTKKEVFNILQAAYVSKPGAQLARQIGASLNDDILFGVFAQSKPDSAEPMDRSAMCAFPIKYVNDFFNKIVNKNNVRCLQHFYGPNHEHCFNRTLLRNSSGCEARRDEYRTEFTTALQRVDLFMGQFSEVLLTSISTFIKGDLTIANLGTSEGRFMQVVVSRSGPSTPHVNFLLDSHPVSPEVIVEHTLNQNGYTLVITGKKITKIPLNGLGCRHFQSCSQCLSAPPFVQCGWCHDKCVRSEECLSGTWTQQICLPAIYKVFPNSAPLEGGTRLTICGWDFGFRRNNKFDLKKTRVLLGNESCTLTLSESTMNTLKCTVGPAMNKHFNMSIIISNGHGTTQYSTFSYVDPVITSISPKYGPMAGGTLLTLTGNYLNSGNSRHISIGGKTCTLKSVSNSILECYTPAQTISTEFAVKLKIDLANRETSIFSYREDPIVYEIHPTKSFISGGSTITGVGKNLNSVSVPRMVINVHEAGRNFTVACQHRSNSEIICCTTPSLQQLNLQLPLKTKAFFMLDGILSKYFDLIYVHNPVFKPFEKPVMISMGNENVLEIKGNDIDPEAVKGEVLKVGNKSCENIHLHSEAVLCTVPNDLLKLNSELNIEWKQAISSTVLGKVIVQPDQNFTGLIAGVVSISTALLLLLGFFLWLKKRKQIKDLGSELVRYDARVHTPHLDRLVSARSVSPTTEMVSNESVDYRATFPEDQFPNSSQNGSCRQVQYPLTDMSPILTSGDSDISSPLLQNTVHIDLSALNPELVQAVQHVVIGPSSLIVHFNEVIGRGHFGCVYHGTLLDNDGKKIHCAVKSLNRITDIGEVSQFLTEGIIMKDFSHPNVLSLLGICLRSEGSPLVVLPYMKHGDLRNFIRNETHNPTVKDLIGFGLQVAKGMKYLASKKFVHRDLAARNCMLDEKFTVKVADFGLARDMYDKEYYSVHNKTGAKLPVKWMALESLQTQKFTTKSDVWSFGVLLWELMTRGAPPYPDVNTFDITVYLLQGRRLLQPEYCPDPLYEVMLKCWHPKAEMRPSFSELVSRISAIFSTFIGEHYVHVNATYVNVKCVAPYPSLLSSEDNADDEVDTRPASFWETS

## hepatocyte growth factor (HGF) (ligand)
  LEC proliferation, minimal effective concentration: 1 ng/mL
